Our source for the switch fluorescence ratio values is the supplement of paper PMC10126150.

The subject of the data set is ATP. The data set is described as follows: switch fluorescence ratio, 500 uM ATP over buffer (Cy3 cluster intensity, sum of 5 cycles each) (fold (ratio)); higher = stronger signal-on switching upon ATP binding; sequences stand for … in TCGTCGGCAGCGTCAGATGTGTATAAGAGACAGTTTTTTTTTTTTTTTTTTTTTTTTT…TC. The note with it: aptamer strand: ATP DNA aptamer (quencher-CACCTGGGGGAGTATTGCGGAGGAAGG + anchor), 100 nM annealed; ATP concentration: 500 uM. In short, it runs like this: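 The fluorescence ratio divides summed target-cycle Cy3 intensity by summed buffer-cycle Cy3 intensity for each cluster and is averaged per switch-domain sequence. Cy3-labelled switching-strand clusters on a modified Illumina MiSeq flow-cell were annealed to 100 nM quencher-labelled ATP aptamer, then imaged in selection buffer and again after 15 min with 500 uM ATP at 22 °C. Five such cycles were run, with NaOH stripping and re-annealing between them, and clusters outside 100-1000 RFU were excluded.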

± gives the standard deviation of the averaged measurements.
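Also: ATP exposure 15 min at 22 °C before imaging.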

Consider GGGTGGGGAT, for which the switch fluorescence ratio is 1 ± 0.02.

For GGGTGGGTGT, the switch fluorescence ratio worked out at 1.05 ± 0.057.

As for GGGTGGTAGA, the switch fluorescence ratio was 1.01 ± 0.04.

Take GGGTGGTATT: the switch fluorescence ratio was found to be 1.03 ± 0.013. As to GGGTGGTGCC, the switch fluorescence ratio came out at 0.997 ± 0.056. As to GGGTGGTGGG, the switch fluorescence ratio was 0.987 ± 0.057. Consider GGGTGGTGTA, for which the switch fluorescence ratio was found to be 1.07 ± 0.096. As to GGGTGGTGTG, the switch fluorescence ratio was 0.99 ± 0.068. GGGTGGTTTT: the switch fluorescence ratio was 1.01 ± 0.035. Take GGGTGTAGCG: the switch fluorescence ratio worked out at 0.965 ± 0.026.

In the case of GGGTGTAGTA, the switch fluorescence ratio amounted to 0.9978 ± 0.0079. For GGGTGTAGTC, the switch fluorescence ratio was found to be 1.02 ± 0.043.

Regarding GGGTTAAAGA, the switch fluorescence ratio is 1 ± 0.017. As for GGGTTAACGT, the figure is 0.987 ± 0.017; as for GGGTTAAGGG, 0.984 ± 0.035; as for GGGTTACGGG, 1.008 ± 0.0045.

Take GGGTTAGATG: the switch fluorescence ratio worked out at 0.9893 ± 0.0069. For the sequence GGGTTAGGAA, the switch fluorescence ratio worked out at 0.991 ± 0.022. For GGGTTAGGGA, the switch fluorescence ratio turned out to be 0.996 ± 0.025. As for GGGTTAGGGT, the figure is 0.991 ± 0.049; as for GGGTTAGTTT, 0.992 ± 0.049.

As to GGGTTATATT, the switch fluorescence ratio came out at 0.988 ± 0.024. Take GGGTTATCGG: the switch fluorescence ratio worked out at 0.967 ± 0.041. As for GGGTTATTAT, the figure is 1.01 ± 0.019. In the case of GGGTTCCGGC, the switch fluorescence ratio was found to be 1.03 ± 0.098. As for GGGTTCCTAT, the figure is 0.987 ± 0.013. Take GGGTTCGTTA: the switch fluorescence ratio was determined as 0.993 ± 0.029. On to GGGTTCTTAA, for which the switch fluorescence ratio amounted to 0.981 ± 0.048. As to GGGTTGAACC, the switch fluorescence ratio amounted to 0.994 ± 0.032. As for GGGTTGAAGG, the switch fluorescence ratio was found to be 0.9875 ± 0.0022. As for GGGTTGAGGA, the switch fluorescence ratio amounted to 1.01 ± 0.05. As to GGGTTGAGGG, the switch fluorescence ratio came to 1 ± 0.027. For the sequence GGGTTGAGTT, the switch fluorescence ratio turned out to be 0.9849 ± 0.0035. For GGGTTGATGC, the switch fluorescence ratio was found to be 1.02 ± 0.041. Consider GGGTTGCATG, for which the switch fluorescence ratio came out at 0.976 ± 0.016. Turning to GGGTTGCCCT, the switch fluorescence ratio came to 0.982 ± 0.033. As for GGGTTGCTGT, the figure is 1.03 ± 0.1.

On to GGGTTGGGAG, for which the switch fluorescence ratio stood at 0.998 ± 0.044. Regarding GGGTTGGGAT, the switch fluorescence ratio was determined as 0.995 ± 0.021. Consider GGGTTGGGTT, for which the switch fluorescence ratio was 1.05 ± 0.18. As for GGGTTGGTCA, the figure is 0.994 ± 0.0094; as for GGGTTGTATT, 0.991 ± 0.031. GGGTTGTGTG: the switch fluorescence ratio was determined as 0.991 ± 0.11.

In the case of GGGTTGTTTT, the switch fluorescence ratio is 0.9944 ± 0.0082. Turning to GGGTTTCAGA, the switch fluorescence ratio is 1.01 ± 0.028. Take GGGTTTGCGA: the switch fluorescence ratio came to 1.02 ± 0.048. In the case of GGGTTTGCTG, the switch fluorescence ratio is 1.01 ± 0.076.

With GGGTTTGTAG, the switch fluorescence ratio was 1.01 ± 0.056. For GGGTTTTATG, the switch fluorescence ratio came to 0.991 ± 0.033. Turning to GGGTTTTGCG, the switch fluorescence ratio is 0.9735 ± 0.0082.

On to GGGTTTTGGG, for which the switch fluorescence ratio was 0.979 ± 0.064.

On to GGGTTTTGTA, for which the switch fluorescence ratio came to 0.974 ± 0.018. As for GGTAAAAAAG, the figure is 1 ± 0.028; as for GGTAAAAGAT, 0.977 ± 0.015.

Regarding GGTAAACGCG, the switch fluorescence ratio was determined as 0.977 ± 0.016. Regarding GGTAAAGATA, the switch fluorescence ratio stood at 0.986 ± 0.019. On to GGTAAAGGCG, for which the switch fluorescence ratio turned out to be 0.9621 ± 0.0048. Regarding GGTAAATTGT, the switch fluorescence ratio was determined as 1.01 ± 0.028. GGTAACATGG: the switch fluorescence ratio worked out at 1.01 ± 0.021. With GGTAATGGTA, the switch fluorescence ratio amounted to 0.9702 ± 0.0045. In the case of GGTAATTATT, the switch fluorescence ratio was 0.951 ± 0.067. In the case of GGTAATTGAA, the switch fluorescence ratio came to 0.9878 ± 0.0076. In the case of GGTACACAGC, the switch fluorescence ratio was 1.02 ± 0.015. As for GGTACGGAAA, the figure is 1.02 ± 0.016.

As to GGTACGGCAA, the switch fluorescence ratio was determined as 1.09 ± 0.019. In the case of GGTACGGGGA, the switch fluorescence ratio worked out at 1.03 ± 0.051. With GGTACGTTTG, the switch fluorescence ratio stood at 0.993 ± 0.033.

As to GGTAGACGGT, the switch fluorescence ratio came to 1.02 ± 0.049.

On to GGTAGAGATT, for which the switch fluorescence ratio stood at 1.02 ± 0.037. As for GGTAGAGTAC, the figure is 1.02 ± 0.046; as for GGTAGCAGCG, 1.05 ± 0.059. As for GGTAGGAGAG, the switch fluorescence ratio amounted to 0.987 ± 0.0057. On to GGTAGGAGTA, for which the switch fluorescence ratio is 0.932 ± 0.051. Consider GGTAGGGATC, for which the switch fluorescence ratio came to 1.017 ± 0.0042. Take GGTAGGGCGA: the switch fluorescence ratio was 1.01 ± 0.026. As for GGTAGGTAGG, the switch fluorescence ratio was found to be 1.01 ± 0.038. As for GGTATAAAGG, the figure is 0.996 ± 0.014. As for GGTATACGTA, the figure is 0.935 ± 0.071.

In the case of GGTATAGTTG, the switch fluorescence ratio is 0.993 ± 0.041. Regarding GGTATATGTC, the switch fluorescence ratio worked out at 0.994 ± 0.05. On to GGTATATTGG, for which the switch fluorescence ratio is 1.01 ± 0.012. As for GGTATCAGGA, the figure is 0.978 ± 0.013. As for GGTATGGACA, the figure is 0.997 ± 0.013; as for GGTATGGATA, 1 ± 0.027.

As to GGTATGGGGT, the switch fluorescence ratio was 1.03 ± 0.058. As to GGTATGGGTG, the switch fluorescence ratio was determined as 1.023 ± 0.0055.

With GGTATGGTGG, the switch fluorescence ratio was 1.01 ± 0.036. GGTATTATTT: the switch fluorescence ratio was 0.995 ± 0.023. As to GGTATTCGAG, the switch fluorescence ratio was found to be 1.02 ± 0.0013. Turning to GGTATTGAGG, the switch fluorescence ratio came out at 0.9871 ± 0.003. As for GGTCACGTAT, the figure is 1.05 ± 0.014; as for GGTCAGGGTA, 1.01 ± 0.04. With GGTCATATGC, the switch fluorescence ratio stood at 1.04 ± 0.013. For GGTCATGACG, the switch fluorescence ratio was 0.923 ± 0.046. With GGTCATGTTG, the switch fluorescence ratio worked out at 0.997 ± 0.051. As for GGTCATTTGT, the figure is 1 ± 0.041; as for GGTCCGATTA, 1 ± 0.056. As for GGTCCTAGAA, the figure is 0.9724 ± 0.0011; as for GGTCCTAGTC, 0.946 ± 0.12. As for GGTCCTGCAA, the figure is 1.76 ± 1.1; as for GGTCCTGTGG, 1.005 ± 0.006; as for GGTCGAAGGC, 0.9859 ± 0.0069. With GGTCGCACCA, the switch fluorescence ratio was determined as 1.02 ± 0.033. As for GGTCGCAGTT, the figure is 0.999 ± 0.022; as for GGTCGCCCAG, 1.01 ± 0.035; as for GGTCGGGCTT, 1.01 ± 0.034. Turning to GGTCGTGCGG, the switch fluorescence ratio came out at 1 ± 0.018.

Take GGTCGTTGGT: the switch fluorescence ratio stood at 1.04 ± 0.022. Regarding GGTCTACATT, the switch fluorescence ratio is 1.01 ± 0.032. As for GGTCTAGACG, the figure is 1.01 ± 0.044.

Regarding GGTCTAGATA, the switch fluorescence ratio was determined as 0.99 ± 0.026.

Consider GGTCTAGATT, for which the switch fluorescence ratio came to 0.988 ± 0.013. In the case of GGTCTGGCTT, the switch fluorescence ratio is 0.988 ± 0.052. As for GGTCTGGTGC, the figure is 1.031 ± 0.0048. As for GGTCTTAGTT, the switch fluorescence ratio amounted to 0.987 ± 0.035.

As for GGTCTTGGGC, the switch fluorescence ratio was found to be 1.02 ± 0.026.

With GGTCTTGTGG, the switch fluorescence ratio turned out to be 0.993 ± 0.032. Consider GGTCTTTCG, for which the switch fluorescence ratio worked out at 0.9794 ± 0.0025. For the sequence GGTGAAATGT, the switch fluorescence ratio came to 0.9561 ± 0.0059. As to GGTGAAGCTG, the switch fluorescence ratio was 1.05 ± 0.14.
